# ± gives the standard deviation of the averaged measurements.
# Key:
# MCF7 = experiment: percentage of EdU-negative (G0-arrested) nuclei per well, 72 h; higher = more G0 arrest; conditions: reference: sequence is the full UniProt precursor, the tested protein was the secreted form or ectodomain
# hTERT-HMEC = experiment: as above; conditions: reference: sequence is the full UniProt precursor, the tested protein was the secreted form or ectodomain
# [1] = protein concentration 0.0257143 µM
# [2] = protein concentration 0.257143 µM
# [3] = protein concentration 0.03125 µM
# [4] = protein concentration 0.3125 µM
# [5] = protein concentration 0.0157525 µM
# [6] = protein concentration 0.157525 µM
# [7] = protein concentration 0.0142825 µM
# [8] = protein concentration 0.142825 µM
# [9] = protein concentration 0.0225 µM
# [10] = protein concentration 0.0262857 µM
# [11] = protein concentration 0.262857 µM
# 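Further: secreted proteins added to cultured cells, EdU pulse at the end, nuclei found by Hoechst imaging, EdU status from nuclear versus surrounding ring intensity ratio, PBS as neutral control.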
sequence,measurement,setting,value
MALPRCTWPNYVWRAVMACLVHRGLGAPLTLCMLGCLLQAGHVLSQKLDDVDPLVATNFGKIRGIKKELNNEILGPVIQFLGVPYAAPPTGERRFQPPEPPSPWSDIRNATQFAPVCPQNIIDGRLPEVMLPVWFTNNLDVVSSYVQDQSEDCLYLNIYVPTEDVKRISKECARKPGKKICRKGGPLTKKQTDDLGDNDGAEDEDIRDSGGPKPVMVYIHGGSYMEGTGNLYDGSVLASYGNVIVITVNYRLGVLGFLSTGDQAAKGNYGLLDLIQALRWTSENIGFFGGDPLRITVFGSGAGGSCVNLLTLSHYSEGNRWSNSTKGLFQRAIAQSGTALSSWAVSFQPAKYARMLATKVGCNVSDTVELVECLQKKPYKELVDQDIQPARYHIAFGPVIDGDVIPDDPQILMEQGEFLNYDIMLGVNQGEGLKFVENIVDSDDGISASDFDFAVSNFVDNLYGYPEGKDVLRETIKFMYTDWADRHNPETRRKTLLALFTDHQWVAPAVATADLHSNFGSPTYFYAFYHHCQTDQVPAWADAAHGDEVPYVLGIPMIGPTELFPCNFSKNDVMLSAVVMTYWTNFAKTGDPNQPVPQDTKFIHTKPNRFEEVAWTRYSQKDQLYLHIGLKPRVKEHYRANKVNLWLELVPHLHNLNDISQYTSTTTKVPSTDITFRPTRKNSVPVTSAFPTAKQDDPKQQPSPFSVDQRDYSTELSVTIAVGASLLFLNILAFAALYYKKDKRRHDVHRRCSPQRTTTNDLTHAQEEEIMSLQMKHTDLDHECESIHPHEVVLRTACPPDYTLAMRRSPDDVPLMTPNTITMIPNTIPGIQPLHTFNTFTGGQNNTLPHPHPHPHSHSTTRV [Q8N2Q7],percentage of EdU-negative,MCF7; [1],23.1 ± 1.3%
same,percentage of EdU-negative,MCF7; [2],22.8 ± 3.5%
same,percentage of EdU-negative,hTERT-HMEC; [1],4.75 ± 0.6%
same,percentage of EdU-negative,hTERT-HMEC; [2],5.43 ± 0.056%
MANRGPAYGLSREVQQKIEKQYDADLEQILIQWITTQCRKDVGRPQPGRENFQNWLKDGTVLCELINALYPEGQAPVKKIQASTMAFKQMEQISQFLQAAERYGINTTDIFQTVDLWEGKNMACVQRTLMNLGGLAVARDDGLFSGDPNWFPKKSKENPRNFSDNQLQEGKNVIGLQMGTNRGASQAGMTGYGMPRQIL,percentage of EdU-negative,MCF7; [3],25.9 ± 1.3%
same,percentage of EdU-negative,MCF7; [4],25.2 ± 2.8%
same,percentage of EdU-negative,hTERT-HMEC; [3],6.1 ± 1.2%
same,percentage of EdU-negative,hTERT-HMEC; [4],5.189 ± 0.039%
MPALGWAVAAILMLQTAMAEPSPGTLPRKAGVFSDLSNQELKAVHSFLWSKKELRLQPSSTTTMAKNTVFLIEMLLPKKYHVLRFLDKGERHPVREARAVIFFGDQEHPNVTEFAVGPLPGPCYMRALSPRPGYQSSWASRPISTAEYALLYHTLQEATKPLHQFFLNTTGFSFQDCHDRCLAFTDVAPRGVASGQRRSWLIIQRYVEGYFLHPTGLELLVDHGSTDAGHWAVEQVWYNGKFYGSPEELARKYADGEVDVVVLEDPLPGGKGHDSTEEPPLFSSHKPRGDFPSPIHVSGPRLVQPHGPRFRLEGNAVLYGGWSFAFRLRSSSGLQVLNVHFGGERIAYEVSVQEAVALYGGHTPAGMQTKYLDVGWGLGSVTHELAPGIDCPETATFLDTFHYYDADDPVHYPRALCLFEMPTGVPLRRHFNSNFKGGFNFYAGLKGQVLVLRTTSTVYNYDYIWDFIFYPNGVMEAKMHATGYVHATFYTPEGLRHGTRLHTHLIGNIHTHLVHYRVDLDVAGTKNSFQTLQMKLENITNPWSPRHRVVQPTLEQTQYSWERQAAFRFKRKLPKYLLFTSPQENPWGHKRTYRLQIHSMADQVLPPGWQEEQAITWARYPLAVTKYRESELCSSSIYHQNDPWHPPVVFEQFLHNNENIENEDLVAWVTVGFLHIPHSEDIPNTATPGNSVGFLLRPFNFFPEDPSLASRDTVIVWPRDNGPNYVQRWIPEDRDCSMPPPFSYNGTYRPV,percentage of EdU-negative,MCF7; protein concentration 0.019 µM,25 ± 4.8%
same,percentage of EdU-negative,MCF7; protein concentration 0.19 µM,29.1 ± 1.2%
same,percentage of EdU-negative,hTERT-HMEC; protein concentration 0.019 µM,5.16 ± 1.3%
same,percentage of EdU-negative,hTERT-HMEC; protein concentration 0.19 µM,11 ± 0.68%
MRQVCCSALPPPPLEKGRCSSYSDSSSSSSERSSSSSSSSSESGSSSRSSSNNSSISRPAAPPEPRPQQQPQPRSPAARRAAARSRAAAAGGMRRDPAPGFSMLLFGVSLACYSPSLKSVQDQAYKAPVVVEGKVQGLVPAGGSSSNSTREPPASGRVALVKVLDKWPLRSGGLQREQVISVGSCVPLERNQRYIFFLEPTEQPLVFKTAFAPLDTNGKNLKKEVGKILCTDCATRPKLKKMKSQTGQVGEKQSLKCEAAAGNPQPSYRWFKDGKELNRSRDIRIKYGNGRKNSRLQFNKVKVEDAGEYVCEAENILGKDTVRGRLYVNSVSTTLSSWSGHARKCNETAKSYCVNGGVCYYIEGINQLSCKCPNGFFGQRCLEKLPLRLYMPDPKQKAEELYQKRVLTITGICVALLVVGIVCVVAYCKTKKQRKQMHNHLRQNMCPAHQNRSLANGPSHPRLDPEEIQMADYISKNVPATDHVIRRETETTFSGSHSCSPSHHCSTATPTSSHRHESHTWSLERSESLTSDSQSGIMLSSVGTSKCNSPACVEARARRAAAYNLEERRRATAPPYHDSVDSLRDSPHSERYVSALTTPARLSPVDFHYSLATQVPTFEITSPNSAHAVSLPPAAPISYRLAEQQPLLRHPAPPGPGPGPGPGPGPGADMQRSYDSYYYPAAGPGPRRGTCALGGSLGSLPASPFRIPEDDEYETTQECAPPPPPRPRARGASRRTSAGPRRWRRSRLNGLAAQRARAARDSLSLSSGSGGGSASASDDDADDADGALAAESTPFLGLRGAHDALRSDSPPLCPAADSRTYYSLDSHSTRASSRHSRGPPPRAKQDSAPL,percentage of EdU-negative,MCF7; [5],24.9 ± 0.53%
same,percentage of EdU-negative,MCF7; [6],26.5 ± 0.38%
same,percentage of EdU-negative,hTERT-HMEC; [5],4.61 ± 0.33%
same,percentage of EdU-negative,hTERT-HMEC; [6],5.33 ± 1%
MKLCVTVLSLLMLVAAFCSPALSAPMGSDPPTACCFSYTARKLPRNFVVDYYETSSLCSQPAVVFQTKRSKQVCADPSESWVQEYVYDLELN,percentage of EdU-negative,MCF7; [7],24.5 ± 1.1%
same,percentage of EdU-negative,MCF7; [8],25.7 ± 0.56%
same,percentage of EdU-negative,hTERT-HMEC; [7],5.53 ± 0.77%
same,percentage of EdU-negative,hTERT-HMEC; [8],5.12 ± 0.26%
MARERPPGRGCGVLRRCLLGAVLLFGLRLCAELRRAGPGSPTRSAPPGPAWRPPGPHLPPAPGQPRGASRRQVTYVRSGRRAPPGGGGSGTPEPGCCAPRGRPRRKGPRWHIDLQPWAGSAQSLDEEAWRFLRYISTTQIACNHMNTDSLATDSSPTHKPWSVCLDDRFNLAHQIRNKQCRLYSLGLGSDDTHFEVSMANNGCEVHRFDPSVKSAHILESQHLWYHRLSIDWRDPHPAVAAQKPHSNTRKLGSILNEFGHHKIDVLKADLESAEWKVLENLILEDVLEQIGQLIFEIHLHWPGFEVSGSDSSVVRFWYSLLKELEQKDFRLFHSYKDLSKPQLFLKKDIFNASSCYTLSWVNTRWK [Q5JXM2],percentage of EdU-negative,MCF7; protein concentration 0.017 µM,26.3 ± 1.3%
same,percentage of EdU-negative,MCF7; protein concentration 0.17 µM,28.6 ± 1.7%
same,percentage of EdU-negative,hTERT-HMEC; protein concentration 0.017 µM,4.87 ± 0.35%
same,percentage of EdU-negative,hTERT-HMEC; protein concentration 0.17 µM,10.9 ± 1.9%
MAQLWLSCFLLPALVVSVAANVAPKFLANMTSVILPEDLPVGAQAFWLVAEDQDNDPLTYGMSGPNAYFFAVTPKTGEVKLASALDYETLYTFKVTISVSDPYIQVQREMLVIVEDRNDNAPVFQNTAFSTSINETLPVGSVVFSVLAVDKDMGSAGMVVYSIEKVIPSTGDSEHLFRILANGSIVLNGSLSYNNKSAFYQLELKACDLGGMYHNTFTIQCSLPVFLSISVVDQPDLDPQFVREFYSASVAEDAAKGTSVLTVEAVDGDKGINDPVIYSISYSTRPGWFDIGADGVIRVNGSLDREQLLEADEEVQLQVTATETHLNIYGQEAKVSIWVTVRVMDVNDHKPEFYNCSLPACTFTPEEAQVNFTGYVDEHASPRIPIDDLTMVVYDPDKGSNGTFLLSLGGPDAEAFSVSPERAVGSASVQVLVRVSALVDYERQTAMAVQVVATDSVSQNFSVAMVTIHLRDINDHRPTFPQSLYVLTVPEHSATGSVVTDSIHATDPDTGAWGQITYSLLPGNGADLFQVDPVSGTVTVRNGELLDRESQAVYYLTLQATDGGNLSSSTTLQIHLLDINDNAPVVSGSYNIFVQEEEGNVSVTIQAHDNDEPGTNNSRLLFNLLPGPYSHNFSLDPDTGLLRNLGPLDREAIDPALEGRIVLTVLVSDCGEPVLGTKVNVTITVEDINDNLPIFNQSSYNFTVKEEDPGVLVGVVKAWDADQTEANNRISFSLSGSGANYFMIRGLVLGAGWAEGYLRLPPDVSLDYETQPVFNLTVSAENPDPQGGETIVDVCVNVKDVNDNPPTLDVASLRGIRVAENGSQHGQVAVVVASDVDTSAQLEIQLVNILCTKAGVDVGSLCWGWFSVAANGSVYINQSKAIDYEACDLVTLVVRACDLATDPGFQAYSNNGSLLITIEDVNDNAPYFLPENKTFVIIPELVLPNREVASVRARDDDSGNNGVILFSILRVDFISKDGATIPFQGVFSIFTSSEADVFAGSIQPVTSLDSTLQGTYQVTVQARDRPSLGPFLEATTTLNLFTVDQSYRSRLQFSTPKEEVGANRQAINAALTQATRTTVYIVDIQDIDSAARARPHSYLDAYFVFPNGSALTLDELSVMIRNDQDSLTQLLQLGLVVLGSQESQESDLSKQLISVIIGLGVALLLVLVIMTMAFVCVRKSYNRKLQAMKAAKEARKTAAGVMPSAPAIPGTNMYNTERANPMLNLPNKDLGLEYLSPSNDLDSVSVNSLDDNSVDVDKNSQEIKEHRPPHTPPEPDPEPLSVVLLGRQAGASGQLEGPSYTNAGLDTTDL [Q9BYE9],percentage of EdU-negative,MCF7; [9],26.56 ± 0.19%
same,percentage of EdU-negative,MCF7; protein concentration 0.225 µM,26.4 ± 2.1%
same,percentage of EdU-negative,hTERT-HMEC; [9],4.86 ± 0.083%
same,percentage of EdU-negative,hTERT-HMEC; protein concentration 0.225 µM,7.42 ± 0.98%
MFLKAVVLTLALVAVAGARAEVSADQVATVMWDYFSQLSNNAKEAVEHLQKSELTQQLNALFQDKLGEVNTYAGDLQKKLVPFATELHERLAKDSEKLKEEIGKELEELRARLLPHANEVSQKIGDNLRELQQRLEPYADQLRTQVSTQAEQLRRQLTPYAQRMERVLRENADSLQASLRPHADELKAKIDQNVEELKGRLTPYADEFKVKIDQTVEELRRSLAPYAQDTQEKLNHQLEGLTFQMKKNAEELKARISASAEELRQRLAPLAEDVRGNLRGNTEGLQKSLAELGGHLDQQVEEFRRRVEPYGENFNKALVQQMEQLRQKLGPHAGDVEGHLSFLEKDLRDKVNSFFSTFKEKESQDKTLSLPELEQQQEQQQEQQQEQVQMLAPLES,percentage of EdU-negative,MCF7; [10],22.7 ± 1.3%
same,percentage of EdU-negative,MCF7; [11],27 ± 1.5%
same,percentage of EdU-negative,hTERT-HMEC; [10],5.7 ± 1%
same,percentage of EdU-negative,hTERT-HMEC; [11],7.022 ± 0.041%
